Experimental data reported in US20040038369A1, “Airway-specific trypsin-like enzymes and method of using the same” (priority 2000, published 2004).

What was measured:
PAR-1 = target: T1, PAR-1 (Homo sapiens, UniProt P25116); assay: Calcium influx in PAR-1-expressing insect cells; format: cell-based; conditions: AST 2 units/mL; trypsin, thrombin 0.1 to 10 units/mL; SFLLRNamide 10 to 100 μM
T1 construct: expressed in transfected cells; host or cells: Sf9 insect cells infected with recombinant baculovirus VL-PAR (pVL1393)
T1 sequence (P25116 22-425): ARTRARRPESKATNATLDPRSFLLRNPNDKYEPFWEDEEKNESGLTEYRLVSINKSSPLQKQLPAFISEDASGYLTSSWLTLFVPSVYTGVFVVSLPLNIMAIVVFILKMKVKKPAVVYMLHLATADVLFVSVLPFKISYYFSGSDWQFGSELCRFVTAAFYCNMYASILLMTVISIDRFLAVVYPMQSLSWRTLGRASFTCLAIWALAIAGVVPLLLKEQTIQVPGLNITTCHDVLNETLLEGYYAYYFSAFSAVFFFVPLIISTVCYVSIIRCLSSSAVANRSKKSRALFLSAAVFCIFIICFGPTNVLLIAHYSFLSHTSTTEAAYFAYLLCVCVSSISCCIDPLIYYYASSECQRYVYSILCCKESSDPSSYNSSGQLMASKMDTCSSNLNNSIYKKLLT
Description: The above-obtained recombinant baculovirus VL-PAR for expressing the PAR was used to infect 1.0×10^7 Sf9 cells sowed on a 75 cm^2 flask at an MOI=2, and was then left and stationally cultured at 27° C. for 40 hours. After the culture, the infected cells were recovered and then subjected to a calcium influx experiment to-confirm the function of the PAR.
The recovered infected cells (about 5×10^6 cells) were once washed with HEPES-Tyrode buffer solution-Ca^2+ (−) pH 7.4, and then suspended in 5 mL of HEPES-Tyrode buffer solution (containing Fura2-AM, 1 μg/mL) to load the Fura2-AM on the cells at 27° C. for 30 minutes. The suspension was centrifuged at 800 rpm at room temperature for 5 minutes to recover the cells. The cells were twice washed with HEPES-Tyrode buffer solution-Ca^2+ (−) pH 7.4 and then resuspended in 5 mL of HEPES-Tyrode buffer solution-Ca^2+ (−) pH 7.4. The cell suspension was mixed with 5 μL of 1M CaCl2 to give a final concentration of 1 mM CaCl2, and then incubated in a shaded state at room temperature for 5 minutes. The prepared Fura2-AM-loaded infected cells were dispensed into a 96 well plate in a volume of 100 μL/well, further subjected to the dispensation of HEPES-Tyrode buffer solution-C^2+ (+) pH 7.4 in a volume of 80 μL/well, and then assayed with a Fluorescence Drug Screening System (made by Hamamatsu Photonics Co.). Namely, [intensity of 500 nm fluorescent light due to 340 nm exciting light]/[intensity of 500 nm fluorescent light due to 380 nm exciting light] (reflecting the concentration of calcium in the cells) was assayed.

IL-8 promoter = IL-8 promoter luciferase reporter assay in BEAS-2B; format: cell-based, human; conditions: HAST 300 mU/mL, 3 hours
Description: About 1.5 Kb and 162 bp of the promoter domains (Mukaida N. et al., J. Immunol., 143: 1366-1371, 1989) of IL-8 were cloned with LA-PCR (produced by Takara Shuzo Co.) using human genome DNA as a template, a forward primer: IL8-1481; […], a forward primer: IL8-162; […], a reverse primer: IL8LUC-R; […]. The PCR was carried out at 98° C. for 20 sec, at 58° C. for one minute and at 68° C. for 5 minutes in 25 cycles. The obtained DNA fragments of the promoter domains of about 1.5 Kb and about 0.25 Kb were named IL8-1481 and IL8-162, respectively.
A DNA fragment containing from ATG (translation-starting codon) to NarI site in the luciferase gene of pGL3-Basic (produced by Promega Corp.) was amplified by a PCR method using a forward primer: IL8LUC-F; […] and a reverse primer: LUC2087R; […]. This luciferase gene N-terminal DNA fragment was ligated to the IL8-1481 and the IL8-162 by a PCR method to obtain the PCR fragments IL8-1481-Luc (about 2 Kb) and IL8-162-Luc (about 800 bp). […]
The luciferase activity was assayed with Pica Gene Dual•Renilla reniformis (produced by Toyo Ink Co.,). […] First, 100 μL of Pica Gene luminescent reagent II was added, and the luminescence due to the firefly luciferase was assayed with a luminometer (LUMINOUS CT-9000D (produced by DIA-IATRON Corp.)). […]

- production of the IL-8 at a transcription level (reporter activity) (IL-8 promoter): promoted
Substance: HAST: human airway-specific trypsin-like enzyme; propeptide moiety bound to trypsin-like protein moiety via a disulfide bond
- Ca2+ influx (PAR-1): observed
